Assay results published in paper PMC11096400 (Scientific Reports, 2024).

Substrate: N[C@@H](CCC(=O)O)C(=O)O
Assay: purified protein
Conditions: 0.1-1.0 mM NADP, 50 mM Tris, pH 7.5, 293 K, 20.0 °C

B1: glutamate dehydrogenase (GDH) (Thermococcus profundus) (protein)
chain: MVEIDPFEMAVKQLERAAQYMDISEEALEWLKKPMRIVEVSVPIEMDDGSVKVFTGFRVQHNWARGPTKGGIRWHPAETLSTVKALATWMTWKVAVVDLPYGGGKGGIIVNPKELSEREQERLARAYIRAVYDVIGPWTDIPAPDVYTNPKIMGWMMDEYETIMRRKGPAFGVITGKPLSIGGSLGRGTATAQGAIFTIREAAKALGIDLKGKKIAVQGYGNAGYYTAKLAKEQLGMTVVAVSDSRGGIYNPDGLDPDEVLKWKREHGSVKDFPGATNITNEELLELEVDVLAPAAIEEVITEKNADNIKAKIVAEVANGPVTPEADDILREKGILQIPDFLCNAGGVTVSYFEWVQNINGYYWTEEEVREKLDKKMTKAFWEVYNTHKDKNIHMRDAAYVVAVSRVYQAMKDRGWVKK
  Km: 2380 ± 24 µM
  kcat: 2.78 ± 0.00 s⁻¹
